According to patent publication US11833164B2, “Methods of treating Fabry disease in patients having a mutation in the GLA gene” (Amicus Therapeutics, Inc., priority 2019, dated 2023):

Test system: mutant form of α-Gal A expressed in HEK-293 cells
Experiment: HEK assay (GLP HEK / Migalastat Amenability Assay): α-Gal A activity in lysates of transiently transfected HEK-293 cells incubated with or without 10 μM migalastat
Format: cell-based, human
Details: for Absolute increase (% WT): 10 μM migalastat versus baseline; for Relative increase: 10 μM migalastat α-Gal A activity relative to baseline; for 10 μM migalastat α-Gal A activity (% WT): 5 days; for 10 μM migalastat α-Gal A activity (% WT) / Baseline α-Gal A activity (% WT): percentage of baseline wild-type α-Gal A activity; for 10 μM migalastat α-Gal A activity (% WT) / Baseline α-Gal A activity (% WT) / Baseline α-Gal A activity / 10 μM migalastat α-Gal A activity: mean ± SEM; for Baseline α-Gal A activity (% WT): absence of migalastat; for Baseline α-Gal A activity / 10 μM migalastat α-Gal A activity: lysates of HEK-293 cells transfected with the mutant form; for Baseline α-Gal A activity: incubated 5 days in the absence of migalastat; for 10 μM migalastat α-Gal A activity: incubated 5 days with 10 μM migalastat
Procedure, shortened: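 HEK-293 cells transiently transfected with mutant α-Gal A and incubated with or without 10 μM migalastat; lysate activity given as nmol free 4-MU released per mg protein per hour. Values are mean±SEM.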

B1: V164I (protein)
chain: MQLRNPELHLGCALALRFLALVSWDIPGARALDNGLARTPTMGWLHWERFMCNLDCQEEPDSCISEKLFMEMAELMVSEGWKDAGYEYLCIDDCWMAPQRDSEGRLQADPQRFPHGIRQLANYVHSKGLKLGIYADVGNKTCAGFPGSFGYYDIDAQTFADWGIDLLKFDGCYCDSLENLADGYKHMSLALNRTGRSIVYSCEWPLYMWPFQKPNYTEIRQYCNHWRNFADIDDSWKSIKSILDWTSFNQERIVDVAGPGGWNDPDMLVIGNFGLSWNQQVTQMALWAIMAAPLFMSNDLRHISPQAKALLQDKDVIAINQDPLGKQGYQLRQGDNFEVWERPLSGLAWAVAMINRQEIGGPRSYTIAVASLGKGVACNPACFITQLLPVKRKLGFYEWTSRLRSHINPTGTVLLQLENTMQMSLKDLL
- Absolute increase (% WT): 41.9 % WT
- Relative increase: 1.9
- 10 μM migalastat α-Gal A activity (% WT): 87.1 ± 8.2 % WT
- Baseline α-Gal A activity (% WT): 45.1 ± 3.4 % WT
- Baseline α-Gal A activity: 12164 ± 1271 nmol/mg/h
- 10 μM migalastat α-Gal A activity: 23219 ± 2640 nmol/mg/h

B2: D165A (protein)
chain: MQLRNPELHLGCALALRFLALVSWDIPGARALDNGLARTPTMGWLHWERFMCNLDCQEEPDSCISEKLFMEMAELMVSEGWKDAGYEYLCIDDCWMAPQRDSEGRLQADPQRFPHGIRQLANYVHSKGLKLGIYADVGNKTCAGFPGSFGYYDIDAQTFADWGVALLKFDGCYCDSLENLADGYKHMSLALNRTGRSIVYSCEWPLYMWPFQKPNYTEIRQYCNHWRNFADIDDSWKSIKSILDWTSFNQERIVDVAGPGGWNDPDMLVIGNFGLSWNQQVTQMALWAIMAAPLFMSNDLRHISPQAKALLQDKDVIAINQDPLGKQGYQLRQGDNFEVWERPLSGLAWAVAMINRQEIGGPRSYTIAVASLGKGVACNPACFITQLLPVKRKLGFYEWTSRLRSHINPTGTVLLQLENTMQMSLKDLL
- Absolute increase (% WT): 4.4 % WT
- Relative increase: 5.2
- 10 μM migalastat α-Gal A activity (% WT): 5.4 ± 0.3 % WT
- Baseline α-Gal A activity (% WT): 1 ± 0.1 % WT
- Baseline α-Gal A activity: 271 ± 30 nmol/mg/h
- 10 μM migalastat α-Gal A activity: 1397 ± 86 nmol/mg/h

B3: F169L (protein)
chain: MQLRNPELHLGCALALRFLALVSWDIPGARALDNGLARTPTMGWLHWERFMCNLDCQEEPDSCISEKLFMEMAELMVSEGWKDAGYEYLCIDDCWMAPQRDSEGRLQADPQRFPHGIRQLANYVHSKGLKLGIYADVGNKTCAGFPGSFGYYDIDAQTFADWGVDLLKLDGCYCDSLENLADGYKHMSLALNRTGRSIVYSCEWPLYMWPFQKPNYTEIRQYCNHWRNFADIDDSWKSIKSILDWTSFNQERIVDVAGPGGWNDPDMLVIGNFGLSWNQQVTQMALWAIMAAPLFMSNDLRHISPQAKALLQDKDVIAINQDPLGKQGYQLRQGDNFEVWERPLSGLAWAVAMINRQEIGGPRSYTIAVASLGKGVACNPACFITQLLPVKRKLGFYEWTSRLRSHINPTGTVLLQLENTMQMSLKDLL
- Absolute increase (% WT): 34.5 % WT
- Relative increase: 1.7
- 10 μM migalastat α-Gal A activity (% WT): 82.3 ± 3.2 % WT
- Baseline α-Gal A activity (% WT): 47.8 ± 2.9 % WT
- Baseline α-Gal A activity: 15588 ± 1463 nmol/mg/h
- 10 μM migalastat α-Gal A activity: 26527 ± 1806 nmol/mg/h

B4: F169C (protein)
chain: MQLRNPELHLGCALALRFLALVSWDIPGARALDNGLARTPTMGWLHWERFMCNLDCQEEPDSCISEKLFMEMAELMVSEGWKDAGYEYLCIDDCWMAPQRDSEGRLQADPQRFPHGIRQLANYVHSKGLKLGIYADVGNKTCAGFPGSFGYYDIDAQTFADWGVDLLKCDGCYCDSLENLADGYKHMSLALNRTGRSIVYSCEWPLYMWPFQKPNYTEIRQYCNHWRNFADIDDSWKSIKSILDWTSFNQERIVDVAGPGGWNDPDMLVIGNFGLSWNQQVTQMALWAIMAAPLFMSNDLRHISPQAKALLQDKDVIAINQDPLGKQGYQLRQGDNFEVWERPLSGLAWAVAMINRQEIGGPRSYTIAVASLGKGVACNPACFITQLLPVKRKLGFYEWTSRLRSHINPTGTVLLQLENTMQMSLKDLL
- Absolute increase (% WT): 26.9 % WT
- Relative increase: 2.4
- 10 μM migalastat α-Gal A activity (% WT): 44.9 ± 2.3 % WT
- Baseline α-Gal A activity (% WT): 18.1 ± 2 % WT
- Baseline α-Gal A activity: 6861 ± 977 nmol/mg/h
- 10 μM migalastat α-Gal A activity: 16396 ± 1516 nmol/mg/h

B5: L166Q (protein)
chain: MQLRNPELHLGCALALRFLALVSWDIPGARALDNGLARTPTMGWLHWERFMCNLDCQEEPDSCISEKLFMEMAELMVSEGWKDAGYEYLCIDDCWMAPQRDSEGRLQADPQRFPHGIRQLANYVHSKGLKLGIYADVGNKTCAGFPGSFGYYDIDAQTFADWGVDQLKFDGCYCDSLENLADGYKHMSLALNRTGRSIVYSCEWPLYMWPFQKPNYTEIRQYCNHWRNFADIDDSWKSIKSILDWTSFNQERIVDVAGPGGWNDPDMLVIGNFGLSWNQQVTQMALWAIMAAPLFMSNDLRHISPQAKALLQDKDVIAINQDPLGKQGYQLRQGDNFEVWERPLSGLAWAVAMINRQEIGGPRSYTIAVASLGKGVACNPACFITQLLPVKRKLGFYEWTSRLRSHINPTGTVLLQLENTMQMSLKDLL
- Absolute increase (% WT): 29.2 % WT
- Relative increase: 2.6
- 10 μM migalastat α-Gal A activity (% WT): 47.6 ± 1.9 % WT
- Baseline α-Gal A activity (% WT): 18.4 ± 1.2 % WT
- Baseline α-Gal A activity: 5656 ± 325 nmol/mg/h
- 10 μM migalastat α-Gal A activity: 14720 ± 616 nmol/mg/h

B6: L167I (protein)
chain: MQLRNPELHLGCALALRFLALVSWDIPGARALDNGLARTPTMGWLHWERFMCNLDCQEEPDSCISEKLFMEMAELMVSEGWKDAGYEYLCIDDCWMAPQRDSEGRLQADPQRFPHGIRQLANYVHSKGLKLGIYADVGNKTCAGFPGSFGYYDIDAQTFADWGVDLIKFDGCYCDSLENLADGYKHMSLALNRTGRSIVYSCEWPLYMWPFQKPNYTEIRQYCNHWRNFADIDDSWKSIKSILDWTSFNQERIVDVAGPGGWNDPDMLVIGNFGLSWNQQVTQMALWAIMAAPLFMSNDLRHISPQAKALLQDKDVIAINQDPLGKQGYQLRQGDNFEVWERPLSGLAWAVAMINRQEIGGPRSYTIAVASLGKGVACNPACFITQLLPVKRKLGFYEWTSRLRSHINPTGTVLLQLENTMQMSLKDLL
- Absolute increase (% WT): 26.1 % WT
- Relative increase: 1.6
- 10 μM migalastat α-Gal A activity (% WT): 72.9 ± 2.7 % WT
- Baseline α-Gal A activity (% WT): 46.8 ± 2.2 % WT
- Baseline α-Gal A activity: 14763 ± 942 nmol/mg/h
- 10 μM migalastat α-Gal A activity: 22948 ± 1321 nmol/mg/h

B7: D165E (protein)
chain: MQLRNPELHLGCALALRFLALVSWDIPGARALDNGLARTPTMGWLHWERFMCNLDCQEEPDSCISEKLFMEMAELMVSEGWKDAGYEYLCIDDCWMAPQRDSEGRLQADPQRFPHGIRQLANYVHSKGLKLGIYADVGNKTCAGFPGSFGYYDIDAQTFADWGVELLKFDGCYCDSLENLADGYKHMSLALNRTGRSIVYSCEWPLYMWPFQKPNYTEIRQYCNHWRNFADIDDSWKSIKSILDWTSFNQERIVDVAGPGGWNDPDMLVIGNFGLSWNQQVTQMALWAIMAAPLFMSNDLRHISPQAKALLQDKDVIAINQDPLGKQGYQLRQGDNFEVWERPLSGLAWAVAMINRQEIGGPRSYTIAVASLGKGVACNPACFITQLLPVKRKLGFYEWTSRLRSHINPTGTVLLQLENTMQMSLKDLL
- Absolute increase (% WT): 18.4 % WT
- Relative increase: 4.4
- 10 μM migalastat α-Gal A activity (% WT): 23.8 ± 1.6 % WT
- Baseline α-Gal A activity (% WT): 5.4 ± 0.2 % WT
- Baseline α-Gal A activity: 1442 ± 43 nmol/mg/h
- 10 μM migalastat α-Gal A activity: 6279 ± 288 nmol/mg/h

B8: V164L (protein)
chain: MQLRNPELHLGCALALRFLALVSWDIPGARALDNGLARTPTMGWLHWERFMCNLDCQEEPDSCISEKLFMEMAELMVSEGWKDAGYEYLCIDDCWMAPQRDSEGRLQADPQRFPHGIRQLANYVHSKGLKLGIYADVGNKTCAGFPGSFGYYDIDAQTFADWGLDLLKFDGCYCDSLENLADGYKHMSLALNRTGRSIVYSCEWPLYMWPFQKPNYTEIRQYCNHWRNFADIDDSWKSIKSILDWTSFNQERIVDVAGPGGWNDPDMLVIGNFGLSWNQQVTQMALWAIMAAPLFMSNDLRHISPQAKALLQDKDVIAINQDPLGKQGYQLRQGDNFEVWERPLSGLAWAVAMINRQEIGGPRSYTIAVASLGKGVACNPACFITQLLPVKRKLGFYEWTSRLRSHINPTGTVLLQLENTMQMSLKDLL
- Absolute increase (% WT): 35.0 % WT
- Relative increase: 1.7
- 10 μM migalastat α-Gal A activity (% WT): 86.2 ± 5.2 % WT
- Baseline α-Gal A activity (% WT): 51.2 ± 3.8 % WT
- Baseline α-Gal A activity: 22055 ± 1619 nmol/mg/h
- 10 μM migalastat α-Gal A activity: 36486 ± 1952 nmol/mg/h

B9: L166M (protein)
chain: MQLRNPELHLGCALALRFLALVSWDIPGARALDNGLARTPTMGWLHWERFMCNLDCQEEPDSCISEKLFMEMAELMVSEGWKDAGYEYLCIDDCWMAPQRDSEGRLQADPQRFPHGIRQLANYVHSKGLKLGIYADVGNKTCAGFPGSFGYYDIDAQTFADWGVDMLKFDGCYCDSLENLADGYKHMSLALNRTGRSIVYSCEWPLYMWPFQKPNYTEIRQYCNHWRNFADIDDSWKSIKSILDWTSFNQERIVDVAGPGGWNDPDMLVIGNFGLSWNQQVTQMALWAIMAAPLFMSNDLRHISPQAKALLQDKDVIAINQDPLGKQGYQLRQGDNFEVWERPLSGLAWAVAMINRQEIGGPRSYTIAVASLGKGVACNPACFITQLLPVKRKLGFYEWTSRLRSHINPTGTVLLQLENTMQMSLKDLL
- Absolute increase (% WT): 48.8 % WT
- Relative increase: 1.8
- 10 μM migalastat α-Gal A activity (% WT): 104 ± 7.3 % WT
- Baseline α-Gal A activity (% WT): 55.2 ± 4.5 % WT
- Baseline α-Gal A activity: 15603 ± 1630 nmol/mg/h
- 10 μM migalastat α-Gal A activity: 27922 ± 1578 nmol/mg/h
